Measurements: patent publication US12577311 (Dana-Farber, dated 2026)

How the values were obtained:
Test in all cases: cell-based or functional assay
[1] = biological target: hamster CAIX on transduced skrc-59 cells (hamster)
[2] = biological target: mouse CAIX on transduced skrc-59 cells (mouse, UniProt Q8VHB5 32-437)
[3] = biological target: monkey CAIX on transduced skrc-59 cells (monkey)

Chain of mouse CAIX on transduced skrc-59 cells (Q8VHB5 32-437): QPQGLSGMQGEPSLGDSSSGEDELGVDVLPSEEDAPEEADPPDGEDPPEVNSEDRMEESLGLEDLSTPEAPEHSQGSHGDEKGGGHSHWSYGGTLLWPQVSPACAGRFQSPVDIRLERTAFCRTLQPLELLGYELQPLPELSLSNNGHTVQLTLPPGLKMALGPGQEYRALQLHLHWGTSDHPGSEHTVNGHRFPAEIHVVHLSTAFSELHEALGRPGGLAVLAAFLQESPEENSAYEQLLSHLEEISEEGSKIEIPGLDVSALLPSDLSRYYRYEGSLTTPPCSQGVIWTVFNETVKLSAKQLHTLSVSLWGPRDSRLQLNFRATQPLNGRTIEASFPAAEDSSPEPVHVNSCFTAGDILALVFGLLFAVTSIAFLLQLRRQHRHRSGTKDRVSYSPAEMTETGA

B1: anti-CAIX (G36) CAR (scFv, V domains shown)
VH: EVQLVQSGGGVVQPGGSLRLSCAASGFPFSSYAMSWVRQAPGKGLEWVSAISANGGTTYYADSVKGRFTISRDNSKNTLYLQMNSLRAEDTAVYYCANNGNYRGAFDIWGQGTMVTVSS
VL: QSVLTQPPSVSGAPGQRVTISCTGSSSNIGAGFDVHWYQQLPGTAPKLLIYGNTNRPSGVPDRFSGSKSGTSASLAITGLQAEDETDYYCQSYDSRLSAWVFGGGTKLTVLG
- killing assay of anti-CAIX (G36) CAR T cells [1]: 50%
- killing assay of anti-CAIX (G36) CAR T cells [2]: 50%
- killing assay of anti-CAIX (G36) CAR T cells [3]: 100%
